Series [1] has as its target T1, CD63 large extracellular domain, recombinant (Homo sapiens, UniProt P08962 103-203). Description: ELISA; PBS pH 7.4, 2.0 mM MgCl2, 0.02% Tween 20, 100 ug/mL salmon sperm DNA; ELISA 0.5 h; cells at RT 1 h (Methods) or 37 C 30 min (Results). The note with it: protein: commercial, tags: C-terminal His. On the technique in general: In an ELISA, binding on a coated surface is turned into a signal by an enzyme label.

A further series addresses HER2 (Homo sapiens (Human), UniProt P04626 23-652). Described as above. Conditions: protein: commercial.
Series [2] concerns the target T1, CD63 large extracellular domain, …. As to the kind of experiment: ELISA; 200 nM aptamer; PBS pH 7.4, 2.0 mM MgCl2, 0.02% Tween 20, 100 ug/mL salmon sperm DNA; ELISA 0.5 h; cells at RT 1 h (Methods) or 37 C 30 min (Results). The note with it: protein: commercial; tags: C-terminal His; label: biotin.

By Kd is commonly meant a measure of binding affinity in units of concentration.

T1 sequence (P08962 103-203): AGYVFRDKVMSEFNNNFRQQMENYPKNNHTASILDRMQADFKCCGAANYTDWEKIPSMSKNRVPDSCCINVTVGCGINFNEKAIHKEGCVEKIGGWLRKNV

Take TAACCACCCCACCTCGCTCCCGTGACACTAATGCTAATTCCAA (ssDNA) [CD63-2]: the equilibrium dissociation constant (Kd) in series [1] (label: biotin (ELISA)) was 78.4 nM. The binding result with HER2 (label: biotin (ELISA)) is listed as “no binding”. Consider TACCTACGACATGCCTGTGCTAGCCGAACCATGCTGAGGTCGT (ssDNA) [CD63-6], for which, in series [2], the binding result is given as “no binding”. Consider TAACACGACAGACGTTCGGAGGTCGAACCCTGACAGCGTGGGC (ssDNA) [CD63-1], for which the Kd in series [1] (label: 5' or 3' biotin (ELISA)) came to 38.7 nM. The binding result in the series with HER2 (label: 5' or 3' biotin (ELISA)) is “no binding”.

These data come from paper PMC7730289, “Development of a CD63 Aptamer for Efficient Cancer Immunochemistry and Immunoaffinity-Based Exosome Isolation”.
